# Assay results reported in patent US20160297884A1 (Pfizer, published 2016).
# B1: L3.PY/L1.AH/H3.TAQ (antibody, V domains shown)
# VH: EVQLLESGGGLVQPGGSLRLSCAASGFTFGSYAMTWVRQAPGKGLEWVSAISGSGGNTFYADSVKGRFTISRDNSKNTLYLQMNSLRAEDTAVYYCTRVSPIAAQMDYWGQGTLVTVSS
# VL: EIVLTQSPGTLSLSPGERATLSCRASQSVSAHYLAWYQQKPGQAPRLLIYGASSRATGIPDRFSGSGSGTDFTLTISRLEPEDFAVYYCQHYPYPPSFTFGQGTKVEIK
# notes: IgG
# B2: L3.PY/L1.FF/H3.AQ (antibody, V domains shown)
# VH: EVQLLESGGGLVQPGGSLRLSCAASGFTFGSYAMTWVRQAPGKGLEWVSAISGSGGNTFYADSVKGRFTISRDNSKNTLYLQMNSLRAEDTAVYYCARVSPIAAQMDYWGQGTLVTVSS
# VL: EIVLTQSPGTLSLSPGERATLSCRASQSVSSFFLAWYQQKPGQAPRLLIYGASSRATGIPDRFSGSGSGTDFTLTISRLEPEDFAVYYCQHYPYPPSFTFGQGTKVEIK
# notes: IgG
# B3: L3.PY/L1.FF/H2.QR (antibody, V domains shown)
# VH: EVQLLESGGGLVQPGGSLRLSCAASGFTFGSYAMTWVRQAPGKGLEWVSAISGSGGNTFYADQRKGRFTISRDNSKNTLYLQMNSLRAEDTAVYYCARVSPIASGMDYWGQGTLVTVSS
# VL: EIVLTQSPGTLSLSPGERATLSCRASQSVSSFFLAWYQQKPGQAPRLLIYGASSRATGIPDRFSGSGSGTDFTLTISRLEPEDFAVYYCQHYPYPPSFTFGQGTKVEIK
# notes: IgG
# B4: L3.PY/L1.PH/H3.AQ (antibody, V domains shown)
# VH: EVQLLESGGGLVQPGGSLRLSCAASGFTFGSYAMTWVRQAPGKGLEWVSAISGSGGNTFYADSVKGRFTISRDNSKNTLYLQMNSLRAEDTAVYYCARVSPIAAQMDYWGQGTLVTVSS
# VL: EIVLTQSPGTLSLSPGERATLSCRASQSVSPHYLAWYQQKPGQAPRLLIYGASSRATGIPDRFSGSGSGTDFTLTISRLEPEDFAVYYCQHYPYPPSFTFGQGTKVEIK
# notes: IgG
# B5: L3.PY/L1.FF/H2.QL (antibody, V domains shown)
# VH: EVQLLESGGGLVQPGGSLRLSCAASGFTFGSYAMTWVRQAPGKGLEWVSAISGSGGNTFYADQLKGRFTISRDNSKNTLYLQMNSLRAEDTAVYYCARVSPIASGMDYWGQGTLVTVSS
# VL: EIVLTQSPGTLSLSPGERATLSCRASQSVSSFFLAWYQQKPGQAPRLLIYGASSRATGIPDRFSGSGSGTDFTLTISRLEPEDFAVYYCQHYPYPPSFTFGQGTKVEIK
# notes: IgG
# B6: L3.PY/L1.PH/H3.AE (antibody, V domains shown)
# VH: EVQLLESGGGLVQPGGSLRLSCAASGFTFGSYAMTWVRQAPGKGLEWVSAISGSGGNTFYADSVKGRFTISRDNSKNTLYLQMNSLRAEDTAVYYCARVSPIAAEMDYWGQGTLVTVSS
# VL: EIVLTQSPGTLSLSPGERATLSCRASQSVSPHYLAWYQQKPGQAPRLLIYGASSRATGIPDRFSGSGSGTDFTLTISRLEPEDFAVYYCQHYPYPPSFTFGQGTKVEIK
# notes: IgG
# B7: L3.PY/L1.FF/H2.LT (antibody, V domains shown)
# VH: EVQLLESGGGLVQPGGSLRLSCAASGFTFGSYAMTWVRQAPGKGLEWVSAISLTGGNTFYADSVKGRFTISRDNSKNTLYLQMNSLRAEDTAVYYCARVSPIASGMDYWGQGTLVTVSS
# VL: EIVLTQSPGTLSLSPGERATLSCRASQSVSSFFLAWYQQKPGQAPRLLIYGASSRATGIPDRFSGSGSGTDFTLTISRLEPEDFAVYYCQHYPYPPSFTFGQGTKVEIK
# notes: IgG
# B8: L3.PY/L1.PH/H2.QR (antibody, V domains shown)
# VH: EVQLLESGGGLVQPGGSLRLSCAASGFTFGSYAMTWVRQAPGKGLEWVSAISGSGGNTFYADQRKGRFTISRDNSKNTLYLQMNSLRAEDTAVYYCARVSPIASGMDYWGQGTLVTVSS
# VL: EIVLTQSPGTLSLSPGERATLSCRASQSVSPHYLAWYQQKPGQAPRLLIYGASSRATGIPDRFSGSGSGTDFTLTISRLEPEDFAVYYCQHYPYPPSFTFGQGTKVEIK
# notes: IgG
# B9: L3.PY/L1.FF/H2.YQ (antibody, V domains shown)
# VH: EVQLLESGGGLVQPGGSLRLSCAASGFTFGSYAMTWVRQAPGKGLEWVSAISYQGGNTFYADSVKGRFTISRDNSKNTLYLQMNSLRAEDTAVYYCARVSPIASGMDYWGQGTLVTVSS
# VL: EIVLTQSPGTLSLSPGERATLSCRASQSVSSFFLAWYQQKPGQAPRLLIYGASSRATGIPDRFSGSGSGTDFTLTISRLEPEDFAVYYCQHYPYPPSFTFGQGTKVEIK
# notes: IgG
# B10: L3.PY/L1.FF/H3.TAQ (antibody, V domains shown)
# VH: EVQLLESGGGLVQPGGSLRLSCAASGFTFGSYAMTWVRQAPGKGLEWVSAISGSGGNTFYADSVKGRFTISRDNSKNTLYLQMNSLRAEDTAVYYCTRVSPIAAQMDYWGQGTLVTVSS
# VL: EIVLTQSPGTLSLSPGERATLSCRASQSVSSFFLAWYQQKPGQAPRLLIYGASSRATGIPDRFSGSGSGTDFTLTISRLEPEDFAVYYCQHYPYPPSFTFGQGTKVEIK
# notes: IgG
# B11: L3.PY/L1.FF/H3.YA (antibody, V domains shown)
# VH: EVQLLESGGGLVQPGGSLRLSCAASGFTFGSYAMTWVRQAPGKGLEWVSAISGSGGNTFYADSVKGRFTISRDNSKNTLYLQMNSLRAEDTAVYYCARVSPIYAGMDYWGQGTLVTVSS
# VL: EIVLTQSPGTLSLSPGERATLSCRASQSVSSFFLAWYQQKPGQAPRLLIYGASSRATGIPDRFSGSGSGTDFTLTISRLEPEDFAVYYCQHYPYPPSFTFGQGTKVEIK
# notes: IgG
# B12: L3.PY/L1.PH/H3.TAQ (antibody, V domains shown)
# VH: EVQLLESGGGLVQPGGSLRLSCAASGFTFGSYAMTWVRQAPGKGLEWVSAISGSGGNTFYADSVKGRFTISRDNSKNTLYLQMNSLRAEDTAVYYCTRVSPIAAQMDYWGQGTLVTVSS
# VL: EIVLTQSPGTLSLSPGERATLSCRASQSVSPHYLAWYQQKPGQAPRLLIYGASSRATGIPDRFSGSGSGTDFTLTISRLEPEDFAVYYCQHYPYPPSFTFGQGTKVEIK
# notes: IgG
# B13: L3.PY/L1.FF/H3.AE (antibody, V domains shown)
# VH: EVQLLESGGGLVQPGGSLRLSCAASGFTFGSYAMTWVRQAPGKGLEWVSAISGSGGNTFYADSVKGRFTISRDNSKNTLYLQMNSLRAEDTAVYYCARVSPIAAEMDYWGQGTLVTVSS
# VL: EIVLTQSPGTLSLSPGERATLSCRASQSVSSFFLAWYQQKPGQAPRLLIYGASSRATGIPDRFSGSGSGTDFTLTISRLEPEDFAVYYCQHYPYPPSFTFGQGTKVEIK
# notes: IgG
# B14: L3.PY/L1.FF/H2.DY (antibody, V domains shown)
# VH: EVQLLESGGGLVQPGGSLRLSCAASGFTFGSYAMTWVRQAPGKGLEWVSAIDYSGGNTFYADSVKGRFTISRDNSKNTLYLQMNSLRAEDTAVYYCARVSPIASGMDYWGQGTLVTVSS
# VL: EIVLTQSPGTLSLSPGERATLSCRASQSVSSFFLAWYQQKPGQAPRLLIYGASSRATGIPDRFSGSGSGTDFTLTISRLEPEDFAVYYCQHYPYPPSFTFGQGTKVEIK
# notes: IgG
# B15: L3.PY/L1.FF/H2.HA (antibody, V domains shown)
# VH: EVQLLESGGGLVQPGGSLRLSCAASGFTFGSYAMTWVRQAPGKGLEWVSAISHAGGNTFYADSVKGRFTISRDNSKNTLYLQMNSLRAEDTAVYYCARVSPIASGMDYWGQGTLVTVSS
# VL: EIVLTQSPGTLSLSPGERATLSCRASQSVSSFFLAWYQQKPGQAPRLLIYGASSRATGIPDRFSGSGSGTDFTLTISRLEPEDFAVYYCQHYPYPPSFTFGQGTKVEIK
# notes: IgG
# B16: L3.PY/L1.PH/H2.HA (antibody, V domains shown)
# VH: EVQLLESGGGLVQPGGSLRLSCAASGFTFGSYAMTWVRQAPGKGLEWVSAISHAGGNTFYADSVKGRFTISRDNSKNTLYLQMNSLRAEDTAVYYCARVSPIASGMDYWGQGTLVTVSS
# VL: EIVLTQSPGTLSLSPGERATLSCRASQSVSPHYLAWYQQKPGQAPRLLIYGASSRATGIPDRFSGSGSGTDFTLTISRLEPEDFAVYYCQHYPYPPSFTFGQGTKVEIK
# notes: IgG
# Molecular target: T1, Human BCMA (human, UniProt Q02223 1-54, limits assumed)
# T1 construct: Soluble analyte in SPR; construct not described; also called huBCMA; B-cell maturation antigen
# T1 sequence (looked up): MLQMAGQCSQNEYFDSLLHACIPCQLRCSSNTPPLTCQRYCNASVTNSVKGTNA
# Experiment: SPR, IgG immobilised, 37 C
# Description: All experiments were performed on a Bio-Rad Proteon XPR36 surface Plasmon resonance biosensor (Bio-Rad, Hercules, Calif.). […] The analysis temperature for the immobilization was 25° C. and the running buffer was HBS-T+(10 mM HEPES, 150 mM NaCl, 0.05% Tween-20, pH 7.4). Channels were activated in the analyte (horizontal) direction by injecting a mixture of 1 mM ECD and 0.25 mM NHS for 3 minutes at a flow rate of 30 μL/min. IgGs were immobilized on the activated spots by injecting them in the ligand (vertical) direction at 20 μg/mL in 10 mM Acetate pH 4.5 buffer for 1.5 minutes at […]. The activated surfaces were blocked by injecting 1M ethanolamine, pH 8.5 in the analyte direction for 3 minutes at 30 μL/min.
# The analysis temperature for the BCMA binding analysis was 37° C. or 25° C. in a running buffer of HBS-T+, supplemented with 1 mg/mL BSA. A kinetic titration method was employed for the interaction analysis as described in Abdiche, et al. Human BCMA (huBCMA) or cynomolgus monkey BCMA (cyBCMA) analyte was injected in the analyte direction using a series of injections from low to high concentration. The concentrations used were 0.08 nM, 0.4 nM, 2 nM, 10 nM and 50 nM (a 5-membered series, with a 5-fold dilution factor and top concentration of 50 nM). The association time for a given analyte dilution was two minutes. Immediately after the 50 nM BCMA injection, dissociation was monitored for 2 hours.
# The sensorgrams were double-referenced and fit to a 1:1 Langmuir with mass transport kinetic titration model in BIAevaluation Software version 4.1.1 (GE Lifesciences, Piscataway, N.J.).
Binder,Kd [pM],T ½ [min],koff [s⁻¹],kon [M⁻¹ s⁻¹]
B1,370,9.68,0.00119,3.27e+06
B2,460,7.51,0.00154,3.32e+06
B3,510,6.54,0.00177,3.47e+06
B4,520,7.27,0.00159,3.08e+06
B5,400,8.28,0.0014,3.48e+06
B6,360,8.61,0.00134,3.68e+06
B7,510,6.92,0.00167,3.3e+06
B8,640,4.89,0.00236,3.69e+06
B9,460,7.61,0.00152,3.32e+06
B10,540,6.12,0.00189,3.52e+06
B11,510,6.41,0.0018,3.5e+06
B12,590,5.43,0.00213,3.58e+06
B13,690,4.39,0.00263,3.82e+06
B14,650,4.27,0.00271,4.14e+06
B15,630,5.29,0.00219,3.49e+06
B16,490,9.99,0.00116,2.37e+06
